We go through 2 molecules from PMC11549432 (Nature Communications, 2024).

The target in data set [1] is ObgE (Obg of E. coli), wild type, N-terminally His6-tagged, purified (E. coli) (UniProt P42641). The data set is described as follows: MST.
Data set [2] has the same target. In words: MST. This is another data set of the same source.
Data set [3] has the same target. In words: MST. This is another data set of the same source.
The data set “SEC-MALS” deals with the molecule itself. The data set is described as follows: SEC-MALS. Background: SEC sorts molecules by how far they enter the pores of the column.

Read-outs that look alike come from different tables or passages of the source.

ObgE (Obg of E. coli), wild type, N-terminally His6-tagged, purified (E. coli), sequence (P42641 whole entry): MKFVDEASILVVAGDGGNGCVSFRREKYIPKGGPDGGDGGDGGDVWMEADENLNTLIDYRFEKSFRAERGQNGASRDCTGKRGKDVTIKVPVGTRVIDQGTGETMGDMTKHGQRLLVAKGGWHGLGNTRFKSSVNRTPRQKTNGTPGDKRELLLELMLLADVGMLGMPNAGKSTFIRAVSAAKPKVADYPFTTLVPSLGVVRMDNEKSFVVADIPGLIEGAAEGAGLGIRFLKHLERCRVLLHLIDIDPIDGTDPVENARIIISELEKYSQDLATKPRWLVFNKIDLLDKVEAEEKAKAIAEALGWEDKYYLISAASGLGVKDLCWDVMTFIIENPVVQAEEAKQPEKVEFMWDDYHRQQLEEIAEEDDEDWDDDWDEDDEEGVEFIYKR

For the molecule “LpxA wild type (UDP-N-acetylglucosamine acyltransferase), purified (from UniProt P0A722 1-262) (enzyme)”, the Kd in data set [1] came out at 99 µM; in data set [2], 78 µM; in data set [3], 47 µM.

B1: LpxA wild type (UDP-N-acetylglucosamine acyltransferase), purified (enzyme, E. coli, UniProt P0A722 1-262, looked up)
chain: MIDKSAFVHPTAIVEEGASIGANAHIGPFCIVGPHVEIGEGTVLKSHVVVNGHTKIGRDNEIYQFASIGEVNQDLKYAGEPTRVEIGDRNRIRESVTIHRGTVQGGGLTKVGSDNLLMINAHIAHDCTVGNRCILANNATLAGHVSVDDFAIIGGMTAVHQFCIIGAHVMVGGCSGVAQDVPPYVIAQGNHATPFGVNIEGLKRRGFSREAITAIRNAYKLIYRSGKTLDEVKPEIAELAETYPEVKAFTDFFARSTRGLIR
Take B1: the “stoichiometry N” value in the data set “SEC-MALS” turned out to be 3.

In general, Kd refers to the free concentration of one partner at which half of the binding sites on the other are occupied at equilibrium, for simple one-to-one binding. A higher Kd goes with lower affinity. A word on the stoichiometry N: it is the number of molecules, sites or subunits per partner or assembly.
